Reference: patent EP1676860A1

Target: thrombin
Experiment: cell-based or functional assay

ATIII DG44 peak (1) fraction (recombinant human antithrombin III produced by the CHO/DG44 transformant pKAN-ATIII AFDG44, heparin-affinity peak (1)) (from UniProt P01008 33-464)
Secondary rate constant (+ hep): thrombin inhibition secondary rate constant in the presence of heparin: 8.7e+06 M⁻¹ s⁻¹ | Secondary rate constant (- hep): thrombin inhibition secondary rate constant in the absence of heparin: 7700 M⁻¹ s⁻¹

ATIII DG44 peak (2) fraction (recombinant human antithrombin III produced by the CHO/DG44 transformant pKAN-ATIII AFDG44, heparin-affinity peak (2)) (from UniProt P01008 33-464)
Secondary rate constant (+ hep): thrombin inhibition secondary rate constant in the presence of heparin: 2e+07 M⁻¹ s⁻¹ | Secondary rate constant (- hep): thrombin inhibition secondary rate constant in the absence of heparin: 8600 M⁻¹ s⁻¹

ATIII MS705 peak (2) fraction (recombinant human antithrombin III produced by the FUT8 gene-double-knockout CHO/DG44 transformant pKAN-ATIII AFMS705, heparin-affinity peak (2)) (from UniProt P01008 33-464)
Secondary rate constant (+ hep): thrombin inhibition secondary rate constant in the presence of heparin: 2.5e+07 M⁻¹ s⁻¹

ATIII MS705 peak (3) fraction (recombinant human antithrombin III produced by the FUT8 gene-double-knockout CHO/DG44 transformant pKAN-ATIII AFMS705, heparin-affinity peak (3)) (from UniProt P01008 33-464)
Secondary rate constant (+ hep): thrombin inhibition secondary rate constant in the presence of heparin: 2.6e+07 M⁻¹ s⁻¹ | Secondary rate constant (- hep): thrombin inhibition secondary rate constant in the absence of heparin: 8800 M⁻¹ s⁻¹

Neuart (human plasma-derived antithrombin III preparation, manufactured by Mitsubishi Pharma Corporation) (from UniProt P01008 33-464)
Secondary rate constant (+ hep): thrombin inhibition secondary rate constant in the presence of heparin: 2.3e+07 M⁻¹ s⁻¹ | Secondary rate constant (- hep): thrombin inhibition secondary rate constant in the absence of heparin: 8200 M⁻¹ s⁻¹
